Series [1] deals with tumor regions. The series can be described thus: Apparent diffusion coefficient MRI (ADC-MRI) of tumors. The format is in vivo, human. The method, then:
Scans were performed pre-treatment and post-treatment.
Apparent diffusion coefficient magnetic Resonance imaging (ADC-MRI) measures the volume of water that has moved across the cell membrane based upon a calculation derived from the pre- and post-treatment scans. ADC-MRI scans were completed for a total of 10 of the 14 patients in the study described in Example 6 and 4 of the 5 patients in the study described in Example 10. […] Increased ADC values are consistent with the mechanism of action of PEGPH20.

Series [2] is described as follows: Dexamethasone premedication and PEGPH20-induced musculoskeletal observations.
Experimental: In one study, four naïve male beagle dogs were orally dosed with 4 mg/dose dexamethasone twice a day on the day of PEGPH20 administration. The first dexamethasone dose was given orally (PO) immediately before PEGPH20 intravenous (IV) administration. The second dexamethasone dose was given orally ˜8 hours later. On day 1, one dog was dosed with 3040 U/kg (0.08 mg/kg) PEGPH20 after Dexamethasone. Twenty four hours later (day 2), a second dog was dosed with 5700 U/kg (0.15 mg/kg) PEGPH20 after Dexamethasone. Twenty four hours later (day 3), a third dog was dosed with 11400 U/kg (0.3 mg/kg) PEGPH20 after Dexamethasone. Twenty four hours later (day 4), a fourth dog was dosed with 38000 U/kg (1.0 mg/kg) PEGPH20 after Dexamethasone. Blood was collected pre-PEGPH20 administration, and 0.5 hr, 4 h and 24 h post-PEGPH20 administration.
PEGPH20 was administered IV with a 5 mL bolus injection via percutaneous needle puncture of the cephalic vein on study Days 1, 2 and/or 5. Dexamethasone was administered orally immediately before the PEGPH20 injection and approximately 8 hours post injection. All animals were re-dosed 3 days after the first injection except those in the PEGPH20 alone treatment group, which were not re-dosed.
Animals treated with only one dose of PEGPH20 were evaluated at 96 hours, 120 hours, 6, 7, 8, and 9 days post-dose.
The subject of series [3] is pericellular and stromal HA. Kind of series: Histochemical detection of HA in patient tumor biopsies. The format is in vivo, human. Conditions: colon cancer patient, liver metastasis, 1.6 μg/kg twice weekly + dexamethasone, post vs archived pre biopsy. The protocol:
An archived pre-dose biopsy (pre biopsy) obtained in 2007 (3.5 years prior to the PEGPH20 study) and a post-PEGPH20 Cycle 1 (3 days after the last dose) biospsy (Post biopsy) were obtained from a colon cancer patient with liver metastases. The patient post-treatment biopsy was obtained after one cycle of PEGPH20 treatment at 1.6 μg/kg on a twice weekly schedule with dexamethasone co-treatment.
Briefly, the tumor biopsies were fixed in normal buffered formalin (NBF) and 5 μm sections cut and stained using a biotin labeled hyaluronan binding protein (HABP-bio) (Seikagaku, Japan). After washing to remove the primary reagent, a labeled secondary reagent was used. Nuclei were counter-stained using a DAPI (4′,6-diamidino-2-phenylindole) reagent. Micrographs were captured via a Nikon Eclipse TE2000U inverted fluorescent microscope coupled to a Insight FireWire digital camera (Diagnostic Instruments, Michigan) or ZEISS overhead scope (Carl Zeiss, Inc.) that has the same imaging system.

The nature of series [4]: Hyaluronidase activity (microturbidity assay), specific activity. The format is biochemical. The method, then:
Hyaluronidase activity of soluble rHuPH20 is measured by incubating soluble rHuPH20 with sodium hyaluronate (hyaluronic acid) for a set period of time (10 minutes) and then precipitating the undigested sodium hyaluronate with the addition of acidified serum albumin. The turbidity of the resulting sample is measured at 640 nm after a 30 minute development period.
Dilutions of the sample were prepared in Enzyme Diluent Solutions. The Enzyme Diluent Solution was prepared by dissolving 33.0±0.05 mg of hydrolyzed gelatin in 25.0 mL of the 50 mM PIPES Reaction Buffer (140 mM NaCl, 50 mM PIPES, pH 5.5) and 25.0 mL of sterile water for injection (SWFI), and diluting 0.2 mL of 25% Buminate solution into the mixture and vortexing for 30 seconds. This was performed within 2 hours of use and stored on ice until needed. The samples were diluted to an estimated 1-2 U/mL. […]
The MULTIDROP 384 was prepared to stop the reaction by priming the machine with Serum Working Solution and changing the volume setting to 240 μL. […] The plate was removed and shaken on a plate reader for 10 seconds. After a further 15 minutes, the turbidity of the samples was measured at 640 nm and the hyaluronidase activity (in U/mL) of each sample was determined by fitting to the standard curve.
Specific activity (Units/mg) was calculated by dividing the hyaluronidase activity (U/ml) by the protein concentration (mg/mL).

The mark [5] stands for this setting: all scanned patients of both studies.

Entries after “also recorded” stand apart in the source; their conditions may differ.

B1: PEGPH20 (protein)
chain: LNFRAPPVIPNVPFLWAWNAPSEFCLGKFDEPLDMSLFSFIGSPRINATGQGVTIFYVDRLGYYPYIDSITGVTVNGGIPQKISLQDHLDKAKKDITFYMPVDNLGMAVIDWEEWRPTWARNWKPKDVYKNRSIELVQQQNVQLSLTEATEKAKQEFEKAGKDFLVETIKLGKLLRPNHLWGYYLFPDCYNHHYKKPGYNGSCFNVEIKRNDDLSWLWNESTALYPSIYLNTQQSPVAATLYVRNRVREAIRVSKIPDAKSPLPVFAYTRIVFTDQVLKFLSQDELVYTFGETVALGASGIVIWGTLSIMRSMKSCLLLDNYMETILNPYIINVTLAAKMCSQVLCQEQGVCIRKNWNSSDYLHLNPDNFAIQLEKGGKFTVRGKPTLEDLEQFSEKFYCSCYSTLSCKEKADVKDTDAVDVCIADGVCIDAFLKPPMETEEPQIFY
Regarding B1, the “Change in Tumor ADC-MRI from baseline” value was “no change” in series [1] (0.5 μg/kg, 2x/wk, scan D3); “decrease in lymph nodes; also recorded: increase” in series [1] (0.5 μg/kg, 21 day cycle, individual patients, scan D3 or D4); “increase; also recorded: no change” in series [1] (0.75 μg/kg, 21 day cycle, individual patients, scan D3 (D30)); “increase” in series [1] (1.0 μg/kg, 21 day cycle, scan D5); “no change” in series [1] (1.5 μg/kg, 21 day cycle, scan D3); “no change” in series [1] (50 μg/kg, scan D4). In addition, the “patients with ADC values decreased” value in series [1] (setting [5]) is recorded as 2 of 14. Moreover, in series [1] (setting [5]), the “patients with ADC values unchanged” value is 5 of 14. In addition, in series [1] (setting [5]), the “patients with increases in ADC-MRI” value is 7 of 14. For the same molecule, in series [2] (PEGPH20 0.3 mg/kg IV alone), the “complete resolution of musculoskeletal observations post-dose” value is given as “approximately 72 hours”. In addition, the “onset of musculoskeletal observations post-dose” value in series [2] (PEGPH20 0.3 mg/kg IV alone) is reported as “approximately 10 hours”. Moreover, the musculoskeletal observations entry in series [2] (PEGPH20 11400 Units/kg (0.3 mg/kg) IV alone) was “moderate to severe musculoskeletal observations”. Further, the “change in tumor HA by histochemical staining” value in series [3] is “decrease in pericellular and stromal HA levels”. The final enzyme activity in series [4] (PEGylated rHuPH20 material at 3.5 mg/mL) is recorded as 140,000 U/mL. Further, the specific activity entry in series [4] (rHuPH20 preparation vs PEGylated form) is recorded as “about 32,000 Units/mg”.

Source of the values: patent US9878046B2, “Adverse side-effects associated with administration of an anti-hyaluronan agent and methods for ameliorating or preventing the side-effects” (Halozyme, Inc., priority 2010, dated 2018).
